Drawing on US9512459B2 (priority 2011, dated 2016), this text covers Km and Vmax for 9 proteins.

B1: Aspergillus niger glucose dehydrogenase (FAD-GDH) Ang-n2 variant T522S, SEQ ID NO: 2 (Aspergillus niger CBS 513.88; T522S) (protein)
chain: YDFVIVGGGTSGLVVANRLSELSDVTVAVIEAGESALNNFNVSNVMGYSTAFGTEVDWAYQTENQTYAGGLQQTIRAGKALGGTSTINGMSYTRAEDVQIDNWEVLGNDGWNWKNLFQYYKKSEGFQVPTKDQIAHGASYNASYHGLNGPLKVGWPNSMTNSSVFPVLEQTFEKLGVQYNPDSEGGKMVGFTVHPDTLDREMNVREDAARAYYWPYEARSNLKIISNTRANKVIWANTTQGEAVAVGIEVTNAYGTETIYADKEVILSAGALRSPAILELSGIGNPDVLNKHNIPVKVNITTVGENLQDQTNNALSWEGVDTLTGLATFSVLPSVNQLYGDNVTALASYVKSQLASYAKTVASASNGAVKEANLVEAFERQYDLIFNSQVPYTEVVFAPSGNSFAVEYWPLLPFSRGSVHIQSANASDYPAINPNYFMFDQDAEAQVTVAQYIRKALGTAPLNSLVGEEVSPGLDVLPASASSATWTKWVKENYRSNYHPVGTTSMLPREKGGVVSPELKVYGTKNVRVVDASVLPFQLCGHLTSTLYAVAERASDLIKESY
notes: pET30c, E. coli BL21(DE3), crude extract
B2: Aspergillus niger glucose dehydrogenase (FAD-GDH) Ang-n2 variant N368K/T522S, SEQ ID NO: 2 (Aspergillus niger CBS 513.88; N368K/T522S) (protein)
chain: YDFVIVGGGTSGLVVANRLSELSDVTVAVIEAGESALNNFNVSNVMGYSTAFGTEVDWAYQTENQTYAGGLQQTIRAGKALGGTSTINGMSYTRAEDVQIDNWEVLGNDGWNWKNLFQYYKKSEGFQVPTKDQIAHGASYNASYHGLNGPLKVGWPNSMTNSSVFPVLEQTFEKLGVQYNPDSEGGKMVGFTVHPDTLDREMNVREDAARAYYWPYEARSNLKIISNTRANKVIWANTTQGEAVAVGIEVTNAYGTETIYADKEVILSAGALRSPAILELSGIGNPDVLNKHNIPVKVNITTVGENLQDQTNNALSWEGVDTLTGLATFSVLPSVNQLYGDKVTALASYVKSQLASYAKTVASASNGAVKEANLVEAFERQYDLIFNSQVPYTEVVFAPSGNSFAVEYWPLLPFSRGSVHIQSANASDYPAINPNYFMFDQDAEAQVTVAQYIRKALGTAPLNSLVGEEVSPGLDVLPASASSATWTKWVKENYRSNYHPVGTTSMLPREKGGVVSPELKVYGTKNVRVVDASVLPFQLCGHLTSTLYAVAERASDLIKESY
notes: as for B1
B3: Aspergillus niger glucose dehydrogenase (FAD-GDH) Ang-n3, SEQ ID NO: 2 (26 N-terminal residues deleted, Met-Asn-Thr-Thr-Thr- added) (Aspergillus niger CBS … (protein)
chain: YDFVIVGGGTSGLVVANRLSELSDVTVAVIEAGESALNNFNVSNVMGYSTAFGTEVDWAYQTENQTYAGGLQQTIRAGKALGGTSTINGMSYTRAEDVQIDNWEVLGNDGWNWKNLFQYYKKSEGFQVPTKDQIAHGASYNASYHGLNGPLKVGWPNSMTNSSVFPVLEQTFEKLGVQYNPDSEGGKMVGFTVHPDTLDREMNVREDAARAYYWPYEARSNLKIISNTRANKVIWANTTQGEAVAVGIEVTNAYGTETIYADKEVILSAGALRSPAILELSGIGNPDVLNKHNIPVKVNITTVGENLQDQTNNALSWEGVDTLTGLATFSVLPSVNQLYGDNVTALASYVKSQLASYAKTVASASNGAVKEANLVEAFERQYDLIFNSQVPYTEVVFAPSGNSFAVEYWPLLPFSRGSVHIQSANASDYPAINPNYFMFDQDAEAQVTVAQYIRKALGTAPLNSLVGEEVSPGLDVLPASASSATWTKWVKENYRTNYHPVGTTSMLPREKGGVVSPELKVYGTKNVRVVDASVLPFQLCGHLTSTLYAVAERASDLIKESY
notes: otherwise wild type; pET30c, E. coli BL21(DE3), dialysed crude enzyme
B4: Aspergillus niger glucose dehydrogenase (FAD-GDH) Ang-n2 variant E195K/Q196D, SEQ ID NO: 2 (Aspergillus niger CBS 513.88; E195K/Q196D) (protein)
chain: YDFVIVGGGTSGLVVANRLSELSDVTVAVIEAGESALNNFNVSNVMGYSTAFGTEVDWAYQTENQTYAGGLQQTIRAGKALGGTSTINGMSYTRAEDVQIDNWEVLGNDGWNWKNLFQYYKKSEGFQVPTKDQIAHGASYNASYHGLNGPLKVGWPNSMTNSSVFPVLKDTFEKLGVQYNPDSEGGKMVGFTVHPDTLDREMNVREDAARAYYWPYEARSNLKIISNTRANKVIWANTTQGEAVAVGIEVTNAYGTETIYADKEVILSAGALRSPAILELSGIGNPDVLNKHNIPVKVNITTVGENLQDQTNNALSWEGVDTLTGLATFSVLPSVNQLYGDNVTALASYVKSQLASYAKTVASASNGAVKEANLVEAFERQYDLIFNSQVPYTEVVFAPSGNSFAVEYWPLLPFSRGSVHIQSANASDYPAINPNYFMFDQDAEAQVTVAQYIRKALGTAPLNSLVGEEVSPGLDVLPASASSATWTKWVKENYRTNYHPVGTTSMLPREKGGVVSPELKVYGTKNVRVVDASVLPFQLCGHLTSTLYAVAERASDLIKESY
notes: as for B1
B5: Aspergillus niger glucose dehydrogenase (FAD-GDH) Ang-n3 variant E195K/Q196E, SEQ ID NO: 2 (Aspergillus niger CBS 513.88; E195K/Q196E) (protein)
chain: YDFVIVGGGTSGLVVANRLSELSDVTVAVIEAGESALNNFNVSNVMGYSTAFGTEVDWAYQTENQTYAGGLQQTIRAGKALGGTSTINGMSYTRAEDVQIDNWEVLGNDGWNWKNLFQYYKKSEGFQVPTKDQIAHGASYNASYHGLNGPLKVGWPNSMTNSSVFPVLKETFEKLGVQYNPDSEGGKMVGFTVHPDTLDREMNVREDAARAYYWPYEARSNLKIISNTRANKVIWANTTQGEAVAVGIEVTNAYGTETIYADKEVILSAGALRSPAILELSGIGNPDVLNKHNIPVKVNITTVGENLQDQTNNALSWEGVDTLTGLATFSVLPSVNQLYGDNVTALASYVKSQLASYAKTVASASNGAVKEANLVEAFERQYDLIFNSQVPYTEVVFAPSGNSFAVEYWPLLPFSRGSVHIQSANASDYPAINPNYFMFDQDAEAQVTVAQYIRKALGTAPLNSLVGEEVSPGLDVLPASASSATWTKWVKENYRTNYHPVGTTSMLPREKGGVVSPELKVYGTKNVRVVDASVLPFQLCGHLTSTLYAVAERASDLIKESY
notes: pET30c, E. coli BL21(DE3), dialysed crude enzyme
B6: Aspergillus niger glucose dehydrogenase (FAD-GDH) Ang-n2 variant N368K, SEQ ID NO: 2 (Aspergillus niger CBS 513.88; N368K) (protein)
chain: YDFVIVGGGTSGLVVANRLSELSDVTVAVIEAGESALNNFNVSNVMGYSTAFGTEVDWAYQTENQTYAGGLQQTIRAGKALGGTSTINGMSYTRAEDVQIDNWEVLGNDGWNWKNLFQYYKKSEGFQVPTKDQIAHGASYNASYHGLNGPLKVGWPNSMTNSSVFPVLEQTFEKLGVQYNPDSEGGKMVGFTVHPDTLDREMNVREDAARAYYWPYEARSNLKIISNTRANKVIWANTTQGEAVAVGIEVTNAYGTETIYADKEVILSAGALRSPAILELSGIGNPDVLNKHNIPVKVNITTVGENLQDQTNNALSWEGVDTLTGLATFSVLPSVNQLYGDKVTALASYVKSQLASYAKTVASASNGAVKEANLVEAFERQYDLIFNSQVPYTEVVFAPSGNSFAVEYWPLLPFSRGSVHIQSANASDYPAINPNYFMFDQDAEAQVTVAQYIRKALGTAPLNSLVGEEVSPGLDVLPASASSATWTKWVKENYRTNYHPVGTTSMLPREKGGVVSPELKVYGTKNVRVVDASVLPFQLCGHLTSTLYAVAERASDLIKESY
notes: as for B1
B7: Aspergillus niger glucose dehydrogenase (FAD-GDH) Ang-n2 variant E195K/Q196R, SEQ ID NO: 2 (Aspergillus niger CBS 513.88; E195K/Q196R) (protein)
chain: YDFVIVGGGTSGLVVANRLSELSDVTVAVIEAGESALNNFNVSNVMGYSTAFGTEVDWAYQTENQTYAGGLQQTIRAGKALGGTSTINGMSYTRAEDVQIDNWEVLGNDGWNWKNLFQYYKKSEGFQVPTKDQIAHGASYNASYHGLNGPLKVGWPNSMTNSSVFPVLKRTFEKLGVQYNPDSEGGKMVGFTVHPDTLDREMNVREDAARAYYWPYEARSNLKIISNTRANKVIWANTTQGEAVAVGIEVTNAYGTETIYADKEVILSAGALRSPAILELSGIGNPDVLNKHNIPVKVNITTVGENLQDQTNNALSWEGVDTLTGLATFSVLPSVNQLYGDNVTALASYVKSQLASYAKTVASASNGAVKEANLVEAFERQYDLIFNSQVPYTEVVFAPSGNSFAVEYWPLLPFSRGSVHIQSANASDYPAINPNYFMFDQDAEAQVTVAQYIRKALGTAPLNSLVGEEVSPGLDVLPASASSATWTKWVKENYRTNYHPVGTTSMLPREKGGVVSPELKVYGTKNVRVVDASVLPFQLCGHLTSTLYAVAERASDLIKESY
notes: as for B1
B8: Aspergillus niger glucose dehydrogenase (FAD-GDH) Ang-n2 variant E195K/Q196E/N368K/T522S, SEQ ID NO: 2 (Aspergillus niger CBS 513.88; E195K/N368K/Q196E/T522S) (protein)
chain: YDFVIVGGGTSGLVVANRLSELSDVTVAVIEAGESALNNFNVSNVMGYSTAFGTEVDWAYQTENQTYAGGLQQTIRAGKALGGTSTINGMSYTRAEDVQIDNWEVLGNDGWNWKNLFQYYKKSEGFQVPTKDQIAHGASYNASYHGLNGPLKVGWPNSMTNSSVFPVLKETFEKLGVQYNPDSEGGKMVGFTVHPDTLDREMNVREDAARAYYWPYEARSNLKIISNTRANKVIWANTTQGEAVAVGIEVTNAYGTETIYADKEVILSAGALRSPAILELSGIGNPDVLNKHNIPVKVNITTVGENLQDQTNNALSWEGVDTLTGLATFSVLPSVNQLYGDKVTALASYVKSQLASYAKTVASASNGAVKEANLVEAFERQYDLIFNSQVPYTEVVFAPSGNSFAVEYWPLLPFSRGSVHIQSANASDYPAINPNYFMFDQDAEAQVTVAQYIRKALGTAPLNSLVGEEVSPGLDVLPASASSATWTKWVKENYRSNYHPVGTTSMLPREKGGVVSPELKVYGTKNVRVVDASVLPFQLCGHLTSTLYAVAERASDLIKESY
notes: as for B1
B9: Aspergillus niger glucose dehydrogenase (FAD-GDH) Ang-n1 variant E195K/Q196E, SEQ ID NO: 2 (Aspergillus niger CBS 513.88; E195K/Q196E) (protein)
chain: MDSPAHYDFVIVGGGTSGLVVANRLSELSDVTVAVIEAGESALNNFNVSNVMGYSTAFGTEVDWAYQTENQTYAGGLQQTIRAGKALGGTSTINGMSYTRAEDVQIDNWEVLGNDGWNWKNLFQYYKKSEGFQVPTKDQIAHGASYNASYHGLNGPLKVGWPNSMTNSSVFPVLKETFEKLGVQYNPDSEGGKMVGFTVHPDTLDREMNVREDAARAYYWPYEARSNLKIISNTRANKVIWANTTQGEAVAVGIEVTNAYGTETIYADKEVILSAGALRSPAILELSGIGNPDVLNKHNIPVKVNITTVGENLQDQTNNALSWEGVDTLTGLATFSVLPSVNQLYGDNVTALASYVKSQLASYAKTVASASNGAVKEANLVEAFERQYDLIFNSQVPYTEVVFAPSGNSFAVEYWPLLPFSRGSVHIQSANASDYPAINPNYFMFDQDAEAQVTVAQYIRKALGTAPLNSLVGEEVSPGLDVLPASASSATWTKWVKENYRTNYHPVGTTSMLPREKGGVVSPELKVYGTKNVRVVDASVLPFQLCGHLTSTLYAVAERASDLIKESY
notes: as for B1

Substrate in the series: OC[C@H]1OC(O)[C@H](O)[C@@H](O)[C@@H]1O
As to the kind of experiment: cells, lysate or membranes named. The format is biochemical, Aspergillus niger. The note with it: other: 60 ml culture, crude enzyme, glucose 1-40 mM, pH 6.5, DCIP/PMS, 20.0 °C.
Protocol: The transformant BL21 (DE3) expressing each mutated enzyme was precultured. The transformant was inoculated in an amount of 1% with respect to 60 ml of a medium A using a 300-ml baffled flask and shake-cultured under conditions involving 20° C., 28 hours, and 125 rpm. After collection of 50 ml of the medium, the bacterial cells were suspended by the addition of BugBuster (registered trademark) protein extraction reagent (Novagen/Merck KGaA) at a ratio of 5 ml per g of wet cells and incubated at room temperature for 15 minutes with gentle shaking. Insoluble fractions were removed by centrifugation (15 Krpm, 4° C., 20 minutes). Then, the obtained supernatant was dialyzed overnight at 4° C. against a 20 mM potassium phosphate buffer solution (pH 6.5). After the completion of the dialysis, the dialysate was centrifuged, and the supernatant was used as a crude enzyme preparation. Insoluble fractions were suspended in a 20 mM potassium phosphate buffer solution (pH 6.5) at a ratio of 1 ml per 2 ml of the suspension containing the insoluble fractions.
The obtained Michaelis-Menten constant (Km value) and apparent maximum activity (Vmax) were determined from a saturation curve determined therefrom.
For the protein B1, the Km is 2500 µM and the Vmax was found to be 3.4 µmol/min/mg.
The matching figures for B2: 3400 µM and 5.3 µmol/min/mg.
The like results for B3 were, in that order, 3700 µM and 0.7 µmol/min/mg.
As to B4, the Km turned out to be 2900 µM and the Vmax turned out to be 5.1 µmol/min/mg.
Consider B5, for which the Km turned out to be 2200 µM and the Vmax is 4.5 µmol/min/mg.
For B6, the Km was 4600 µM and the maximum rate (Vmax) is 0.7 µmol/min/mg.
The matching figures for B7: 2500 µM and 4.3 µmol/min/mg.
As for B8, the Km was 3200 µM and the Vmax was 6.1 µmol/min/mg.
With B9, the Km is 2800 µM and the maximum rate (Vmax) was found to be 2.5 µmol/min/mg.

The term Km denotes the concentration of substrate that gives half-maximal velocity. The Vmax is the rate approached at saturating substrate.
